The values that follow come from patent US20220356247A1 (NANJING IMMUNOPHAGE BIOTECH, published 2022).

For this assay, the target named is T1, human ROR1 (human, UniProt Q01973 30-403, limits assumed).
T1 construct: also called receptor tyrosine kinase-like orphan receptor 1
Nature of the assay: affinity for human ROR1, method not stated.

T1 sequence (Q01973 30-403 limits assumed): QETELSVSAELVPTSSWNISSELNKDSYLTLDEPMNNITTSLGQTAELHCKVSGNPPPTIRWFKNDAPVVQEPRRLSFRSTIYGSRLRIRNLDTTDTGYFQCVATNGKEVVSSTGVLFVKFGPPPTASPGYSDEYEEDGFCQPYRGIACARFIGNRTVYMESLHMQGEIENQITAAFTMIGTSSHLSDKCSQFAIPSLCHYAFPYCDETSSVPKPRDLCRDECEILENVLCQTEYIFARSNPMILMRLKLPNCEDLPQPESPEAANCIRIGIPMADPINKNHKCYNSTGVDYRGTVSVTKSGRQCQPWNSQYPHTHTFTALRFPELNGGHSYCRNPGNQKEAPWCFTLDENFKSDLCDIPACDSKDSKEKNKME

B1: anti-ROR1 antibody clone C3 (antibody, V domains shown)
VH: QVQLQESGPGLVKPSETLSLTCTVSGGSISSYYWSWIRQLPGKGLEWIGYMHYSGSTSYNPSLKGRLTISVDTSTNQFSLKLGSVTAADTAVYYCARYYYHDSSGYYSYFDYWGQGTLVTVSS
VL: EIVLTQSPGTLSLSPGERATLSCRASQSVSSYLAWYQQKAGQAPRLLIYDASNRASGIPARFSGSGSGTDFTLTISSLEPEDFAVYYCQQRSNWPPTFGGGTKVEIK
notes: Fully human clone from a naive phage library
Turning to B1, the Kd was determined as 3.25 nM. That is a single-digit nanomolar value.

B2: anti-ROR1 antibody clone G3 (antibody, V domains shown)
VH: QVQLQQWGAGLLKPSETLSLTCAVYGGSFSGYYWSWIRQPPGKGLEWIGEINHSGSTSYNPSLKSRVTISVDTSKNQFSLKLSSVTAADTAVYYCARGHSSGWYRRYFDLWGRGTLVTVSS
VL: EIVLTQSPATLSLSPGERATLSCRASQSVSSYLAWYQQKPGQAPRLLIYDASNRATGIPAKFSGSGSGTDFTLTISSLEPEDFAVYYCQQRSNWPPTFGGGTKVEIK
notes: as for B1
Molecule B2 came in with a Kd of 4.48 nM.

B3: anti-ROR1 antibody clone G6 (antibody, V domains shown)
VH: EVQLVESGGGVVQPGGSLRLSCAASGFTFDDYAMHWVRQAPGKGLEWVSLISGDGGSTYYADSVKGRFTISRDNAKNSLYLQMNSLRAEDTAVYYCARDNWNDVYYYYGMDVWGQGTTVTVSS
VL: DIQLTQSPSSLSASIGDTVTISCQASRDISDYLNWYQHKPGKAPKLLIYDASNLATGVPSRFSGSGSGTDFTLTIKSLQPEDVATYFCQQDDLLPLTFGGGTKVDIK
notes: as for B1
For B3, the Kd amounted to 43.7 nM.
